Experimental data published in publication PMC12135372, “Structural and biochemical characterization of the 3′-5′ tRNA splicing ligases”.

Assays:
Test in all cases: disulfide (cystamine) crosslinking, SDS-PAGE; 2.5 mM MnCl2; MST: 25 mM Hepes pH 7.5, 150 mM NaCl, 1 mM DTT, with or without 2 mM GTP and 2 mM MnCl2, 20 nM Cy5-tRNA, temperature not stated; crosslinking: 50 mM Tris pH 7.5, 25 mM NaCl, 25 mM KCl, 30% glycerol, 2.5 mM MnCl2, 0-1 mM DTT, 37 C 2 h then 24 C 14 h
Settings in all cases: protein: recombinant; tags: His6-SUMO removed; single strand
Tb-RtcB R237C = biological target: T1, Tb-RtcB R237C (Thermococcus barophilus, UniProt F0LKB8 1-479, R237C)
T1 sequence: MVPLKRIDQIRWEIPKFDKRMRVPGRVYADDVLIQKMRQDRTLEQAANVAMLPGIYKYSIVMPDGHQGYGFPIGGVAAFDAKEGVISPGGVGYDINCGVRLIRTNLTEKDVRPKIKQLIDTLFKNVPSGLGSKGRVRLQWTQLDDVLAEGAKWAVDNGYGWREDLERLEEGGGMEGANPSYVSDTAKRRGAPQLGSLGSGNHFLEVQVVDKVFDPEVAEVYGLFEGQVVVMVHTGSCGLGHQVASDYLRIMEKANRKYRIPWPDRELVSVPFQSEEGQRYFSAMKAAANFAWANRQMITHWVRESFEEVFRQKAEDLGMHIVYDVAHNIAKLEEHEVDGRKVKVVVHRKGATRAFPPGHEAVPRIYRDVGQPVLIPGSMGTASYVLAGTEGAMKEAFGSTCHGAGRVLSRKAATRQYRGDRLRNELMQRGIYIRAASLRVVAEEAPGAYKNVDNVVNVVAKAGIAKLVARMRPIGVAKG

Tb-RtcB S199C = biological target: T2, Tb-RtcB S199C (Thermococcus barophilus, UniProt F0LKB8 1-479, S199C)
T2 sequence: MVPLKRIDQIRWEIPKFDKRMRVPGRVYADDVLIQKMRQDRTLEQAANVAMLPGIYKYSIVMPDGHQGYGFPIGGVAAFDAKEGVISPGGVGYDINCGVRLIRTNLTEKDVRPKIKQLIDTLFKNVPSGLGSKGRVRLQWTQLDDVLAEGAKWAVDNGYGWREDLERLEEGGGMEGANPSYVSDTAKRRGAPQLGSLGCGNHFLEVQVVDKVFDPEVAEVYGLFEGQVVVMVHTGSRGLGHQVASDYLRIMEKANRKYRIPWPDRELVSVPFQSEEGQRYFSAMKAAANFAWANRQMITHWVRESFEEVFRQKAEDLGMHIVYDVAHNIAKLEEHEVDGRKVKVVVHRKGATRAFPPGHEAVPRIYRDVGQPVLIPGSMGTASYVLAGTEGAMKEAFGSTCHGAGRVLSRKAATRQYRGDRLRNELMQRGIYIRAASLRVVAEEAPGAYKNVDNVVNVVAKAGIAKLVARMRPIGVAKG

Tb-RtcB L130C = biological target: T3, Tb-RtcB L130C (Thermococcus barophilus, UniProt F0LKB8 1-479, L130C)
T3 sequence: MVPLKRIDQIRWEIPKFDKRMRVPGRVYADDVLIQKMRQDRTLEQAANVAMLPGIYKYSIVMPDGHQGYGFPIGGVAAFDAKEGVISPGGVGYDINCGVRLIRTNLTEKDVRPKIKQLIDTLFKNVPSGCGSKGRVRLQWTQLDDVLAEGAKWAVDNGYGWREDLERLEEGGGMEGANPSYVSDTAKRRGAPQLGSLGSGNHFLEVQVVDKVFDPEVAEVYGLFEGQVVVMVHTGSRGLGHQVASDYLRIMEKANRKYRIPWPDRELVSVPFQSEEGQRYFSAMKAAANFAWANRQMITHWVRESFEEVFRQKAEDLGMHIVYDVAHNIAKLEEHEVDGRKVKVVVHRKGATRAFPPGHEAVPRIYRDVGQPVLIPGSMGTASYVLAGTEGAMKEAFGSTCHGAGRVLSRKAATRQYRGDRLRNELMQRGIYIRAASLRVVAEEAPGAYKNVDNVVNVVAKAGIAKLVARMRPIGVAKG

AAACACCGGUGGAGG (ssRNA, cystamine on phosphate between nt 1 and 2; 2'-F at nt 1; 3'-phosphate) [RNA-2]: binds (Tb-RtcB R237C).

AAACACCGGUGGAGG (ssRNA, cystamine on phosphate between nt 2 and 3; 2'-F at nt 2; 3'-phosphate) [RNA-1]: binds (Tb-RtcB R237C); binds (Tb-RtcB S199C); binds (Tb-RtcB L130C).
